Measured values reported in patent publication US20240301023A1 (PREVECEUTICAL MEDICAL, published 2024).
Square brackets hold non-standard residues; d marks the D form. Primed or numbered codes have the meaning given here. Phe(4-NO2) = N[C@@H](Cc1ccc([N+](=O)[O-])cc1)C(=O)O; Phe(4-Cl) = N[C@@H](Cc1ccc(Cl)cc1)C(=O)O; Phe(4-F) = N[C@@H](Cc1ccc(F)cc1)C(=O)O; NMA″ = not defined here; NMA = N-methylarginine; Sar = CNCC(=O)O

Experiments:
Assay in all cases: cell-based or functional assay
[1] = molecular target: T1, Kappa opioid receptor (KOR) (Homo sapiens (Human), UniProt P41145 1-380)
T1 sequence (P41145 whole entry, form in doubt): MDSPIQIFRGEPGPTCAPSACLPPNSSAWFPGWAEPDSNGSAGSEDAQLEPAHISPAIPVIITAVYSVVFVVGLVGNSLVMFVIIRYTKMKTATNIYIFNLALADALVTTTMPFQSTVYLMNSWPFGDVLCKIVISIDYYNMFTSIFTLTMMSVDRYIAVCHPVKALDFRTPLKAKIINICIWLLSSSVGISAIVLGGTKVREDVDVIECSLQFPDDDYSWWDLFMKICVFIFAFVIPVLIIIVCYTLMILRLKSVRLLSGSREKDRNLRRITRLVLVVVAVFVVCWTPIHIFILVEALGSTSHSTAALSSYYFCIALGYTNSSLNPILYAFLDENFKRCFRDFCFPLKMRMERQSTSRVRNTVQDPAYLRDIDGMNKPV

Mu opioid receptor (MOR) [2] = molecular target: Mu opioid receptor (MOR)
Sequence of Mu opioid receptor (MOR) (P35372 whole entry): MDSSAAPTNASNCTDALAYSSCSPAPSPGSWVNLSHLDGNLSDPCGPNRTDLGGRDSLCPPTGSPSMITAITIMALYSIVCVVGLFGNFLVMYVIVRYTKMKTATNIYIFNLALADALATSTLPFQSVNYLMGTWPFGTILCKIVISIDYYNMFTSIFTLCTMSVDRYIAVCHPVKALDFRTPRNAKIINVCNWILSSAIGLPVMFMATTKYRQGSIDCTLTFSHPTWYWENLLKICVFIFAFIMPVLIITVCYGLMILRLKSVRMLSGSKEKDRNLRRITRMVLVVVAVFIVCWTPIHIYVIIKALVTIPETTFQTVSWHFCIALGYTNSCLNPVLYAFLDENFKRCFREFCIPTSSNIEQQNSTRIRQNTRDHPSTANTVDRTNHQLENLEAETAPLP

[3] = molecular target: Delta opioid receptor (DOR)
[4] = molecular target: T1, Kappa opioid receptor (KOR); remark: listed apart in the source
Mu opioid receptor (MOR) [5] = molecular target: Mu opioid receptor (MOR); remark: listed apart in the source
[6] = molecular target: Delta opioid receptor (DOR); remark: listed apart in the source

H-Y[Sar][Phe(4-NO2)]L[dR]R-NH2 [SEQ ID NO. 5: NH2-Tyr-Sar-(4-NO2)Phe-Leu-DArg-Arg-NH2]
cAMP assay (ALPHAScreen), result at 1 µM peptide [1]: 33.4 | cAMP assay (ALPHAScreen), result at 10 µM peptide [1]: 43.1 | cAMP assay (ALPHAScreen), result at 1 µM peptide (Mu opioid receptor (MOR) [2]): -0.05 | cAMP assay (ALPHAScreen), result at 10 µM peptide (Mu opioid receptor (MOR) [2]): 4.32 | cAMP assay (ALPHAScreen), result at 1 µM peptide [3]: 0.05 | cAMP assay (ALPHAScreen), result at 10 µM peptide [3]: 2.02

H-Y[Sar]FL[dR]R-NH2 [SEQ ID NO. 6: NH2-Tyr-Sar-Phe-Leu-DArg-Arg-NH2]
cAMP assay (ALPHAScreen), result at 1 µM peptide [1]: 14.2 | cAMP assay (ALPHAScreen), result at 10 µM peptide [1]: 35.1 | cAMP assay (ALPHAScreen), result at 1 µM peptide (Mu opioid receptor (MOR) [2]): 1.04 | cAMP assay (ALPHAScreen), result at 10 µM peptide (Mu opioid receptor (MOR) [2]): 7.84 | cAMP assay (ALPHAScreen), result at 1 µM peptide [3]: -0.03 | cAMP assay (ALPHAScreen), result at 10 µM peptide [3]: 2.25

H-Y[Sar]FL[dR][dR]-NH2 [SEQ ID NO. 7: NH2-Tyr-Sar-Phe-Leu-DArg-DArg-NH2]
cAMP assay (ALPHAScreen), result at 1 µM peptide [1]: 18.3 | cAMP assay (ALPHAScreen), result at 10 µM peptide [1]: 36 | cAMP assay (ALPHAScreen), result at 1 µM peptide (Mu opioid receptor (MOR) [2]): 0.13 | cAMP assay (ALPHAScreen), result at 10 µM peptide (Mu opioid receptor (MOR) [2]): 4.19 | cAMP assay (ALPHAScreen), result at 1 µM peptide [3]: -0.68 | cAMP assay (ALPHAScreen), result at 10 µM peptide [3]: 2.53

B1: SEQ ID NO. 9: NH2-Phe-Sar-(4-NO2)Phe-Leu-DArg-DArg-NH2 (peptide)
peptide: H-F[Sar][Phe(4-NO2)]L[dR][dR]-NH2
SMILES: CC(C)C[C@H](NC(=O)[C@H](Cc1ccc([N+](=O)[O-])cc1)NC(=O)CN(C)C(=O)[C@@H](N)Cc1ccccc1)C(=O)N[C@H](CCCNC(=N)N)C(=O)N[C@H](CCCNC(=N)N)C(N)=O
cAMP assay (ALPHAScreen), result at 1 µM peptide [1]: 2.46 | cAMP assay (ALPHAScreen), result at 10 µM peptide [1]: 23.1 | cAMP assay (ALPHAScreen), result at 1 µM peptide (Mu opioid receptor (MOR) [2]): -0.97 | cAMP assay (ALPHAScreen), result at 10 µM peptide (Mu opioid receptor (MOR) [2]): -0.64 | cAMP assay (ALPHAScreen), result at 1 µM peptide [3]: -0.5 | cAMP assay (ALPHAScreen), result at 10 µM peptide [3]: 1.83

H-Y[Sar][Phe(4-NO2)]L[dK][dR]-NH2 [SEQ ID NO. 10: NH2-Tyr-Sar-(4-NO2)Phe-Leu-DLys-DArg-NH2]
cAMP assay (ALPHAScreen), result at 1 µM peptide [1]: 8.47 | cAMP assay (ALPHAScreen), result at 10 µM peptide [1]: 25.1 | cAMP assay (ALPHAScreen), result at 1 µM peptide (Mu opioid receptor (MOR) [2]): -1.27 | cAMP assay (ALPHAScreen), result at 10 µM peptide (Mu opioid receptor (MOR) [2]): 0.02 | cAMP assay (ALPHAScreen), result at 1 µM peptide [3]: -3 | cAMP assay (ALPHAScreen), result at 10 µM peptide [3]: -0.95

H-Y[Sar][Phe(4-Cl)]LR[dR]-NH2 [SEQ ID NO. 11: NH2-Tyr-Sar-(4-Cl)Phe-Leu-Arg-DArg-NH2]
cAMP assay (ALPHAScreen), result at 1 µM peptide [1]: 27.7 | cAMP assay (ALPHAScreen), result at 10 µM peptide [1]: 34 | cAMP assay (ALPHAScreen), result at 1 µM peptide (Mu opioid receptor (MOR) [2]): -0.86 | cAMP assay (ALPHAScreen), result at 10 µM peptide (Mu opioid receptor (MOR) [2]): 1.37 | cAMP assay (ALPHAScreen), result at 1 µM peptide [3]: -1.18 | cAMP assay (ALPHAScreen), result at 10 µM peptide [3]: 4.27 | Activity (EC50, nM), cAMP assay [4]: 6.1 nM | Activity (EC50, nM), cAMP assay (Mu opioid receptor (MOR) [5]): > 10000 nM | Activity (EC50, nM), cAMP assay [6]: > 10000 nM

H-Y[Sar][Phe(4-F)]LR[dR]-NH2 [SEQ ID NO. 12: NH2-Tyr-Sar-(4-F)Phe-Leu-Arg-DArg-NH2]
Activity (EC50, nM), cAMP assay [4]: 6.7 nM | Activity (EC50, nM), cAMP assay (Mu opioid receptor (MOR) [5]): 3450 nM | Activity (EC50, nM), cAMP assay [6]: > 10000 nM

B2: SEQ ID NO. 13: NH2-Tyr-Sar-(4-Cl)Phe-Leu-NMA-DArg-NH2 (peptide)
peptide: H-Y[Sar][Phe(4-Cl)]LX[dR]-NH2
modifications: not fully specified (residue 5); printed as NH2-Tyr-Sar-(4-Cl)Phe-Leu-NMA-DArg-NH2
Activity (EC50, nM), cAMP assay [4]: 4.54 nM | Activity (EC50, nM), cAMP assay (Mu opioid receptor (MOR) [5]): > 10000 nM | Activity (EC50, nM), cAMP assay [6]: > 10000 nM

H-Y[Sar][Phe(4-F)]L[NMA][dR]-NH2 [SEQ ID NO. 14: NH2-Tyr-Sar-(4-F)Phe-Leu-NMA-DArg-NH2]
Activity (EC50, nM), cAMP assay [4]: 11.6 nM | Activity (EC50, nM), cAMP assay (Mu opioid receptor (MOR) [5]): 4000 nM | Activity (EC50, nM), cAMP assay [6]: 1660 nM

H-Y[Sar][Phe(4-NO2)]L[NMA][dR]-NH2 [SEQ ID NO. 15: NH2-Tyr-Sar-(4-NO2)Phe-Leu-NMA-DArg-NH2]
Activity (EC50, nM), cAMP assay [4]: 13.5 nM | Activity (EC50, nM), cAMP assay (Mu opioid receptor (MOR) [5]): > 10000 nM | Activity (EC50, nM), cAMP assay [6]: 1320 nM

B3: SEQ ID NO. 16: NH2-Tyr-Sar-(4-Cl)Phe-Leu-Lys-DArg-NH2 (peptide)
peptide: H-Y[Sar][Phe(4-Cl)]LK[dR]-NH2
SMILES: CC(C)C[C@H](NC(=O)[C@H](Cc1ccc(Cl)cc1)NC(=O)CN(C)C(=O)[C@@H](N)Cc1ccc(O)cc1)C(=O)N[C@@H](CCCCN)C(=O)N[C@H](CCCNC(=N)N)C(N)=O
Activity (EC50, nM), cAMP assay [4]: 26 nM | Activity (EC50, nM), cAMP assay (Mu opioid receptor (MOR) [5]): > 10000 nM

H-Y[Sar][Phe(4-Cl)]LR[NMA″]-NH2 (reading uncertain; also: printed as NH2-Tyr-Sar-(4-Cl)Phe-Leu-Arg-NMA-NH2) [SEQ ID NO. 17: NH2-Tyr-Sar-(4-Cl)Phe-Leu-Arg-NMA-NH2]
Activity (EC50, nM), cAMP assay [4]: 3.9 nM | Activity (EC50, nM), cAMP assay (Mu opioid receptor (MOR) [5]): > 10000 nM
